Paper PMC12930380, “Overcoming Ligand Discovery Challenges: Developing Peptide-Based Tracers for SPSB2” (ACS Chemical Biology, 2025)
Bridge positions count the residues as written; N and C are the ends. Square brackets hold non-standard residues; d marks the D form. Primed or numbered codes have the meaning given here. Ends that are not written are not given here. Peptide text beside a SMILES is read from it. * marks the point of attachment. X1 = O=C(CCC1=[N+]2C(=Cc3ccc(-c4ccc[nH]4)n3[B-]2(F)F)C=C1)*; PEG4′ = tetra(ethylene glycol) spacer; PEG4 = NCCOCCOCCOCCOCCC(=O)O; PEG4″ = not defined here

Tests used:
hSPSB2^SPRY [1] = target: T1, hSPSB2^SPRY (Homo sapiens, UniProt Q99619); assay: Differential scanning fluorimetry (thermal shift); type: binding; conditions: DSF, 50 μM peptide, 5 μM His-hSPSB2^SPRY, 30 mM HEPES pH 7.5, 5% DMSO, mean ± SD (n = 4); for Mean Tm: DMSO control 43.2 ± 0.1
T1 construct: Human His6-SPSB2^SPRY (86–219) was expressed as a fusion construct; made in house; host or cells: Escherichia coli BL21(DE3)
T1 sequence (Q99619 26-219 limits assumed): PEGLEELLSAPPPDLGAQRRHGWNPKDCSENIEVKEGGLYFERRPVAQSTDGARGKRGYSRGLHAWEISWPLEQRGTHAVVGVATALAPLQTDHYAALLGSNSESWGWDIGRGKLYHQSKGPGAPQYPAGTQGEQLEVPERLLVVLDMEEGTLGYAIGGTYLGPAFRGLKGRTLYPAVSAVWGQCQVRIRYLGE
Description: For peptide screening, 50 μM peptide was added to 5 μM His-hSPSB2^SPRY diluted in buffer containing 30 mM HEPES pH 7.5, 100 mM NaCl, 1 mM TCEP, 5x SYPRO Orange and 5% DMSO as quadruplicates. Thermal shift analyses were carried out using a QuantStudio 5 Real-Time PCR System (Applied Biosystems) with a temperature gradient ranging from 25 to 95 °C at an increase of 0.05 °C/s. Data analysis was performed by fitting a Boltzmann sigmoidal curve to the raw values using the Protein Thermal Shift software (Applied Biosystems).

hSPSB2^SPRY [2] = target: T1, hSPSB2^SPRY; assay: Surface plasmon resonance single cycle kinetics; type: binding; conditions: immobilized His-hSPSB2^SPRY; for koff / kon: mean ± SD (n = 3); for koff: read-out: SPR koff (dissociation rate constant); for kon: read-out: SPR kon (association rate constant); for SPR binding behaviour (qualitative): no KD determined
Description: Surface Plasmon Resonance experiments were conducted on a Biacore T200 instrument with a Series S Sensor Chip CM5 (Cytiva) and 10 mM HEPES pH 7.5, 150 mM NaCl, 0.5 mM TCEP, 0.05% Tween20 and 2% DMSO for the running buffer. His-hSPSB2^SPRY was diluted to 5 μg/mL in Acetate pH 5.5 and immobilized at 10 μL/min to reach 400–700 RU response levels on Flow-channel (FC) 2–4 for triplicates. Immobilization was performed via standard amine coupling procedure by injecting a mixture of 483 mM EDC and […] for activation with a subsequent injection of 1 M ethanolamine for deactivation. FC1 was used as a reference surface without protein-injection. Kinetic titration experiments were performed using a single-cycle kinetics procedure, with five peptide concentrations (0.8 nM to 1 μM) injected for 150 s each at a flow rate of 30 μL/min, followed by a dissociation phase of 600 s. After each peptide titration, multiple buffer injections were performed to reach a stable baseline. Solvent correction and blank injections were also included. After referencing, blank subtraction, and solvent correction, the data were analyzed using the Biacore T200 evaluation software. Sensorgrams with overlaid fit were replotted using GraphPad Prism version 8.0.1.

HCT116 cells = assay: CellTiter-Glo cytotoxicity assay; type: cell-based; conditions: 0.39 μM to 50 μM, 2 h incubation, 37 °C, n = 6
Description: For cytotoxicity measurements, 10 μL HCT116 cells in Dulbecco’s Modified Eagle Medium (DMEM) were seeded at 2*10^5 cells/mL into a white 384-well-flat-bottom plate. […] Ten μL CellTiter-Glo 2.0 Reagent (Promega) was added to each well, followed by an incubation of 10 min at RT. Luminescence was measured, using a PheraSTAR FSX plate reader. Data was normalized to cells treated with 1% DMSO (100% survival control) and digitonin (0% survival control), then plotted using GraphPad Prism version 8.0.1.

[3] = target: Human His6-SPSB2^SPRY (86–219) (human) (UniProt Q99619); assay: SPR
[4] = target: Human His6-SPSB2^SPRY (86–219) (human) (UniProt Q99619); assay: differential scanning fluorimetry
[5] = target: Human His6-SPSB2^SPRY (86–219) (human) (UniProt Q99619); assay: differential scanning fluorimetry; 50 μM peptide added to 5 μM His-hSPSB2^SPRY; 30 mM HEPES pH 7.5, 100 mM NaCl, 1 mM TCEP, 5x SYPRO Orange, 5% DMSO; 25 to 95 °C; quadruplicates
[6] = target: T2, C-terminally Nanoluc-tagged human full length SPSB2 (human, UniProt Q99619 1-263); assay: FRET or BRET; NanoBRET displacement in intact HCT116 cells transfected with SPSB2-NanoLuc; 30 nM cyclic TAT tracer, cyclic TAT peptide titrated 6 nM to 50 uM, triplicates; conditions: one partner purified
T2 construct: also called SPRY domain-containing SOCS box protein 2; source: HCT116, transfected, in intact cells; not shown: NanoLuc, C-terminal, kept
T2 sequence (looked up): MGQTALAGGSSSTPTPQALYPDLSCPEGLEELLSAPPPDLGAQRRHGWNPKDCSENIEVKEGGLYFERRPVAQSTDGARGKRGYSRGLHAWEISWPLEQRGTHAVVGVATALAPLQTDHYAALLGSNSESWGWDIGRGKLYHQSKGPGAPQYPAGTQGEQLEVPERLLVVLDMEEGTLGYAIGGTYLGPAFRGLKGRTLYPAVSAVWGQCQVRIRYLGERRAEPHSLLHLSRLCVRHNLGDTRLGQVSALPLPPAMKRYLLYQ

[7] = target: T2, C-terminally Nanoluc-tagged human full …; assay: FRET or BRET; NanoBRET displacement in intact HCT116 cells transfected with SPSB2-NanoLuc; 20 nM cyclic TAT tracer, cyclic TAT peptide titrated 6 nM to 50 uM, triplicates (biological replicate); conditions: one partner purified
[8] = target: T3, C-terminally Nanoluc-tagged human full length SPSB2 (human, UniProt Q99619 1-263); assay: FRET or BRET; NanoBRET tracer titration, apparent KD; 39 pM - 2.5 μM tracer titrated to HCT116 cells transfected with SPSB2-NanoLuc and permeabilized with 25 μM digitonin; conditions: one partner purified
T3 construct: source: HCT116, transfected (FuGENE HD), in intact or digitonin-permeabilized cells; not shown: NanoLuc, C-terminal, kept
T3 sequence (looked up): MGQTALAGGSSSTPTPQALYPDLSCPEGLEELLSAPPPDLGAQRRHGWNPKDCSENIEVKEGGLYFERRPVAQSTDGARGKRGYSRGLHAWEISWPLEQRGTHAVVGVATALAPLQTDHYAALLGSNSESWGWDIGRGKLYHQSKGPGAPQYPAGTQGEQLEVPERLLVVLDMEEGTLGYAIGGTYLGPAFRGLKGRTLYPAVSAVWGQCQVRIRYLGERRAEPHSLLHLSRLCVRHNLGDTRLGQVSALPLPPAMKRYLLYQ

[9] = target: T3, C-terminally Nanoluc-tagged human full …; assay: FRET or BRET; NanoBRET tracer titration, apparent KD; 39 pM - 2.5 μM tracer titrated to intact HCT116 cells transfected with SPSB2-NanoLuc; 2 h at 37 °C; conditions: one partner purified

CC[C@H](C)[C@H](NC(=O)[C@H](CC(=O)O)NC(=O)[C@H](CCCCN)NC(=O)[C@H](CCC(=O)O)NC(=O)[C@H](CCC(=O)O)NC(=O)[C@@H](N)CCCCN)C(=O)N[C@@H](CC(N)=O)C(=O)N[C@@H](CC(N)=O)C(=O)N[C@@H](CC(N)=O)C(=O)N[C@H](C(=O)N[C@@H](CCCCN)C(=O)N[C@@H](CCCCN)C(=O)N[C@H](C(=O)O)[C@@H](C)O)C(C)C [iNOS peptide, reference compound] (H-KEEKDINNNVKKT-OH)
ΔTm at 50 µM (hSPSB2^SPRY [1]): 14.1 ± 0.1 °C | koff (hSPSB2^SPRY [2]): 0.0024 s⁻¹ | kon (hSPSB2^SPRY [2]): 2.9e+06 M⁻¹ s⁻¹

PEG4-YGRKKRRQRRRGSGVDINNN [Linear TAT peptide]
ΔTm (hSPSB2^SPRY [1]): 10.6 ± 0.1 °C | Mean Tm (hSPSB2^SPRY [1]): 53.8 ± 0.1 °C | SPR binding behaviour (qualitative) (hSPSB2^SPRY [2]): non 1:1 binding interaction

CC[C@H](C)[C@H](NC(=O)[C@H](CC(=O)O)NC(=O)[C@@H](NC(=O)CNC(=O)[C@H](CO)NC(=O)CNC(=O)[C@@H]1CSSC[C@H](NC(=O)CCOCCOCCOCCOCCN)C(=O)N[C@@H](Cc2ccc(O)cc2)C(=O)NCC(=O)N[C@@H](CCCNC(=N)N)C(=O)N[C@@H](CCCCN)C(=O)N[C@@H](CCCCN)C(=O)N[C@@H](CCCNC(=N)N)C(=O)N[C@@H](CCCNC(=N)N)C(=O)N[C@@H](CCC(N)=O)C(=O)N[C@@H](CCCNC(=N)N)C(=O)N[C@@H](CCCNC(=N)N)C(=O)N[C@@H](CCCNC(=N)N)C(=O)N1)C(C)C)C(=O)N[C@@H](CC(N)=O)C(=O)N[C@@H](CC(N)=O)C(=O)N[C@@H](CC(N)=O)C(=O)O [Cyclic TAT peptide] (H-[PEG4]CYGRKKRRQRRRCGSGVDINNN-OH; disulfide 2-14; N-terminus and C-terminus assumed)
ΔTm at 50 µM (hSPSB2^SPRY [1]): 8.1 ± 0.1 °C | Mean Tm (hSPSB2^SPRY [1]): 51.4 ± 0.1 °C | SPR binding behaviour (qualitative) (hSPSB2^SPRY [2]): non 1:1 binding interaction | Impact on cell viability (CellTiter-Glo, qualitative) (HCT116 cells): no impact on cell viability at any tested concentration

CC[C@H](C)[C@H](NC(=O)[C@H](CC(=O)O)NC(=O)[C@@H](NC(=O)CNC(=O)[C@H](CO)NC(=O)CNC(=O)[C@@H]1CSSC[C@H](NC(=O)CCOCCOCCOCCOCCNC(=O)CCC2=[N+]3C(=Cc4ccc(-c5ccc[nH]5)n4[B-]3(F)F)C=C2)C(=O)N[C@@H](Cc2ccc(O)cc2)C(=O)NCC(=O)N[C@@H](CCCNC(=N)N)C(=O)N[C@@H](CCCCN)C(=O)N[C@@H](CCCCN)C(=O)N[C@@H](CCCNC(=N)N)C(=O)N[C@@H](CCCNC(=N)N)C(=O)N[C@@H](CCC(N)=O)C(=O)N[C@@H](CCCNC(=N)N)C(=O)N[C@@H](CCCNC(=N)N)C(=O)N[C@@H](CCCNC(=N)N)C(=O)N1)C(C)C)C(=O)N[C@@H](CC(N)=O)C(=O)N[C@@H](CC(N)=O)C(=O)N[C@@H](CC(N)=O)C(=O)O [Cyclic TAT tracer] ({X1-PEG4}-CYGRKKRRQRRRCGSGVDINNN-OH; disulfide 1-13)
Concentration leading to reduced cell survival (CellTiter-Glo) (HCT116 cells): above 10 μM

CC[C@H](C)[C@H](NC(=O)[C@H](CC(=O)O)NC(=O)[C@@H](NC(=O)CNC(=O)[C@H](CO)NC(=O)CNC(=O)[C@H](CC(=O)O)NC(=O)CNC(=O)[C@H](CCCNC(=N)N)NC(=O)CCOCCOCCOCCOCCN)C(C)C)C(=O)N[C@@H](CC(N)=O)C(=O)N[C@@H](CC(N)=O)C(=O)N[C@@H](CC(N)=O)C(=O)O [Linear RGD peptide] (H-[PEG4]RGDGSGVDINNN-OH; N-terminus and C-terminus assumed)
ΔTm at 50 µM (hSPSB2^SPRY [1]): 10.9 ± 0.2 °C | Mean Tm (hSPSB2^SPRY [1]): 54.1 ± 0.2 °C | koff (hSPSB2^SPRY [2]): 0.032 s⁻¹ | kon (hSPSB2^SPRY [2]): 200000 M⁻¹ s⁻¹

[PEG4′]RGDGSGVDINNN [linear RGD peptide]
Kd [3]: 162 nM | koff [3]: 0.032 s⁻¹ | kon [3]: 200000 M⁻¹ s⁻¹ | ΔTm [4]: 10.9 °C

KEEKDINNNVKKT [iNOS peptide]
Kd [3]: 0.8 nM | koff [3]: 0.0024 s⁻¹ | kon [3]: 2.9e+06 M⁻¹ s⁻¹ | ΔTm [4]: 14.1 °C

[PEG4′]CYGRKKRRQRRRCGSGVDINNN (disulfide 2-14) [cyclic TAT peptide]
ΔTm [5]: 8.1 °C

B1: cyclic TAT peptide (PEG4-CYGRKKRRQRRRCGSGVDINNN) (peptide)
peptide: [PEG4′]CYGRKKRRQRRRCGSGVDINNN
modifications: disulfide 2-14
notes: also called cyclic TAT peptide variant; source: synthetic peptide (custom synthesized by Synpel Chemical, GeneCust and GenScript Biotech)
EC50 [6]: ~386 nM | EC50 [7]: ~200 nM

B2: Cyclic TAT tracer (peptide)
peptide: {BODIPY 576/589-PEG4″}-CYGRKKRRQRRRCGSGVDINNN
modifications: disulfide 1-13
notes: also called fluorophore-tagged cyclic TAT tracer; source: synthetic peptide (custom synthesized by Synpel Chemical, GeneCust and GenScript Biotech)
Kd [8]: 346 nM | Kd [9]: 86 nM

[PEG4′]YGRKKRRQRRRGSGVDINNN [linear TAT peptide]
ΔTm [5]: 10.6 °C
